Key:
[1] = system: MS2 coat protein; test: apparent KD of MS2 coat protein, switch ON state; designed switch direction (-1 OFF switch, 1 ON switch): -1; higher = weaker reporter binding; conditions: FMN input: 0 or 200 uM; Eterna round: R93 (includes R88 designs)
Summary of the method: (§1)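 Apparent KD per design is the median of normalised cluster binding-curve fits. Designed RNA switches transcribed on-chip from Illumina sequencing clusters were titrated with SNAP-549-labelled MS2 coat protein in twofold steps from 0.7 or 1.5 nM to 3 µM, with 0.8–1.5 h down to 10–20 min per step. Buffer: 100 mM Tris-HCl pH 7.5, 80 mM KCl, 4 mM MgCl2, without or with constant ligand.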

[2] = system: MS2 coat protein; test: apparent KD of MS2 coat protein, switch OFF state (with FMN for OFF switches, without FMN for ON switches); designed switch direction (-1 OFF switch, 1 ON switch): -1; higher = weaker reporter binding; conditions: FMN input: 0 or 200 uM; Eterna round: R93 (includes R88 designs)
Summary of the method: as §1

AAUAUGGGAGGAUAUGCAUAGAUAAAGAAACAUGUUAAAACACAUGAGGAUCACCCAUGUAGAAGGCCCAUAUA [AJ 10]
apparent KD of MS2 coat protein [1]: 0.103 µM
apparent KD of MS2 coat protein [2]: 0.335 µM

AAUGGUGGAGGAUAUACAUGAGGAUCACCCAUGUAAAUCACACAUGUGGUCAAAGCAUGUAGAAGGCCACUAAA [Ex 3May 52]
apparent KD of MS2 coat protein [1]: 0.086 µM
apparent KD of MS2 coat protein [2]: 0.0849 µM

AAUUAGUGAGGAUAUACGGGAGGGAGGGAGGGAGGGAGGGAGUAGAAGGCACAUGAGGAUCACCCAUGUAAUUA [The West [Loop] is Red]
apparent KD of MS2 coat protein [1]: 0.0208 µM
apparent KD of MS2 coat protein [2]: 0.0499 µM

ACAAGAUCAGGAUAUACAUGAGGAUCACCCAUGUAAAUCAAAAAGGGACUUACUUAAUGUAGAAGGGAUCAUGU [EX3 279: Random 15]
apparent KD of MS2 coat protein [1]: 0.0286 µM
apparent KD of MS2 coat protein [2]: 0.106 µM

ACAGCUGAAGGAUAUACUUGGGAAAAAAAAAAAAAAAAAAAACAUGAGGAUCACCCAUGUAGAAGGUCAGCUGA [Brourd - Exclusion 2 - Sub 1]
apparent KD of MS2 coat protein [1]: 0.0822 µM
apparent KD of MS2 coat protein [2]: 0.0435 µM

ACUAAUGAAGGAUAUACAAACAACAAACACACAACACACACACAUGAGGAUCACCCAUGUAGAAGGUCAAACAU [JR_Exc002_Sub1203]
apparent KD of MS2 coat protein [1]: 0.0158 µM
apparent KD of MS2 coat protein [2]: 0.0156 µM

AGAAAACAUGAGGAUCACCCAUGUCAGGAUAUGUAAAAGAAAAGAAAAGAAAGAAGAAACAGAAGGGACAAGAA [Seth-Peribsen]
apparent KD of MS2 coat protein [1]: 0.0569 µM
apparent KD of MS2 coat protein [2]: 0.0537 µM

AGAAAACAUGAGGAUCACCCAUGUGAGGAUAUGAAAAAGAAAAGAAAAGAAAGAAGAAUCAGAAGGCACAAGAA [Weneg]
apparent KD of MS2 coat protein [1]: 0.0286 µM
apparent KD of MS2 coat protein [2]: 0.0298 µM

AGAAAACGAGGAUAUGCAAGGGAAGAAAGAAGAGAGAAAAAACAUGAGGAUCACCCAUGUAGAAGGUGUAAAAA [JR_Exc002_Sub1714]
apparent KD of MS2 coat protein [1]: 0.0575 µM
apparent KD of MS2 coat protein [2]: 0.0371 µM

AGAAAGCUAGGAUAUACCUGGAGGGUUCUAAAUGAAAUAAAACAUGAGGAUCACCCAUGUAGAAGGAGCCCGAA [Sobire]
apparent KD of MS2 coat protein [1]: 0.0183 µM
apparent KD of MS2 coat protein [2]: 0.0166 µM

AGAAAGUCAGGAUAUCAGAAACUAGUCGAAACGACUAGAAAUGAGAAGGGACAUGAGGAUCACCCAUGUAAGAA [Ex4 sub 2]
apparent KD of MS2 coat protein [1]: 0.0463 µM
apparent KD of MS2 coat protein [2]: 0.0431 µM

AGAAAGUGAGGAUAUACAUGAGGAUCACCCAUGUAGAACGAGAGUUAUAAAAAUGGAAGUAGAAGGCGCAAAAG [water's exclusion 3 2nd]
apparent KD of MS2 coat protein [1]: 0.0286 µM
apparent KD of MS2 coat protein [2]: 0.0348 µM

AGAAUACAUGAGGAUCACCCAUGUGAGGAUAUGCAGAUAAAAAUAAAAUAAAAUAAAUGCAGAAGGCACGAAAG [EX 1 May 21]
apparent KD of MS2 coat protein [1]: 0.0371 µM
apparent KD of MS2 coat protein [2]: 0.0861 µM

AGCAAGUAAGGAUAUGCGAAGUCAGGACACACACUGACGAAGCAGAAGGUACAUGAGGAUCACCCAUGUAAGCA [JR_Exclusion-4 65% 3]
apparent KD of MS2 coat protein [1]: 0.0246 µM
apparent KD of MS2 coat protein [2]: 0.0187 µM

AGCAUGUGAGGAUAUGCGGACUCCAAUAAAUCUGGAGUCCAGUAGAAGGCACAUGAGGAUCACCCAUGUGAUAA [Soenaesma]
apparent KD of MS2 coat protein [1]: 0.102 µM
apparent KD of MS2 coat protein [2]: 0.117 µM

AGCUAGGUAGGAUAUACGUAAAUGUCGAAAGACGUAUUGGGACAUGAGGAUCACCCAUGUAGAAGGAUCUAGCA [it's a mod mod mod world 3]
apparent KD of MS2 coat protein [1]: 0.0388 µM
apparent KD of MS2 coat protein [2]: 0.178 µM

AGCUAGUCAGGAUAUACAAAAUGAUUGCGAAAGCAAUCAACACAUGAGGAUCACCCAUGUAGAAGGGACUAGCA [Mat - Exclusion 2 - JL-Eli mod - D43]
apparent KD of MS2 coat protein [1]: 0.0185 µM
apparent KD of MS2 coat protein [2]: 0.0211 µM

AGCUAGUCAGGAUAUACGAAAAUGUACGAAGCUGAGAAGGGACAUGAGGAUCACCCAUGUAGAAGGGACUAGCA [Diamond 35]
apparent KD of MS2 coat protein [1]: 0.0392 µM
apparent KD of MS2 coat protein [2]: 0.0525 µM

AGCUAGUCAGGAUAUACGAACAUGUCAAAAGACGUAAGGGAACAUGAGGAUCACCCAUGUAGAAGGGACUCGCA [Diamond 51]
apparent KD of MS2 coat protein [1]: 0.0613 µM
apparent KD of MS2 coat protein [2]: 0.0985 µM

AGCUAGUCAGGAUAUACGAACAUGUCAAAAGACGUGAAAAAACAUGAGGAUCACCCAUGUAGAAGGGACUAGCA [Mat - Exclusion 2 - JL mod - D11]
apparent KD of MS2 coat protein [1]: 0.0188 µM
apparent KD of MS2 coat protein [2]: 0.0146 µM

AGGAAACAUGAGGAUCACCCAUGUAAGGAUAUGAACGAAAAUAAAUAAAAAUAAAAGUUCAGAAGGUACAAAAA [66%, Wbt, 6]
apparent KD of MS2 coat protein [1]: 0.0298 µM
apparent KD of MS2 coat protein [2]: 0.0527 µM

AGGAAACAUGAGGAUCACCCAUGUGAGGAUAUAUGAAAGAAAAGAAAAGAAAGAAGAAGUAGAAGGCACAAGAA [Djer]
apparent KD of MS2 coat protein [1]: 0.0272 µM
apparent KD of MS2 coat protein [2]: 0.0232 µM

AGGAAGUGAGGAUAUGCUGCUCGUCACUUGCGUGAUGAGUAGCAGAAGGCACAUGAGGAUCACCCAUGUAAAAA [Mat - Exaclusion 4 - Eli mod - D21]
apparent KD of MS2 coat protein [1]: 0.0467 µM
apparent KD of MS2 coat protein [2]: 0.0489 µM

AGGGAACAUGAGGAUCACCCAUGUGAGGAUAUGCUAUGGAAAAUAAAAAUAAAACAUAGCAGAAGGCAUAAAAA [Denovo 10]
apparent KD of MS2 coat protein [1]: 0.0521 µM
apparent KD of MS2 coat protein [2]: 0.0495 µM

AGGGAGUAAGGAUAUGAGAAAGAAAAAGAAGGAAAAAAAGAUCAGAAGGUACAUGAGGAUCACCCAUGUAAAAA [milkweed 9]
apparent KD of MS2 coat protein [1]: 0.0356 µM
apparent KD of MS2 coat protein [2]: 0.026 µM

AGGGAGUGAGGAUAUACGAAAAAAAAAGAAGGAAAAAAAGAGUAGAAGGCACAUGAGGAUCACCCAUGUAAGAA [milkweed 13]
apparent KD of MS2 coat protein [1]: 0.0358 µM
apparent KD of MS2 coat protein [2]: 0.026 µM

AGUAUGCGAGGAUAUACAUGAGGAUCACCCAUGUGAGAGAUAAGUGUGAGAAAGACAAGUAGAAGGCGCGUACA [JL Lego Mod 27]
apparent KD of MS2 coat protein [1]: 0.106 µM
apparent KD of MS2 coat protein [2]: 0.331 µM

AGUCAUACAGGAUAUACAUGAGGAUCACCCAUGUAUAUCCAAAAAAAAAAAAACUCAUGUAGAAGGGUAUGACA [EX3 206: Super Stable 6]
apparent KD of MS2 coat protein [1]: 0.012 µM
apparent KD of MS2 coat protein [2]: 0.0124 µM

AGUCAUACAGGAUAUACAUGAGGAUCACCCAUGUUUAUCCUAAAAAAAUAAAAAACAUGUAGAAGGGUAUGACA [EX3 216: Super Stable 16]
apparent KD of MS2 coat protein [1]: 0.0129 µM
apparent KD of MS2 coat protein [2]: 0.0137 µM

AGUGAGUCAGGAUAUUCGUGAAGAAUAAAAGAAAUAACAACGAAGAAGGGACAUGAGGAUCACCCAUGUACACA [May 57]
apparent KD of MS2 coat protein [1]: 0.0336 µM
apparent KD of MS2 coat protein [2]: 0.025 µM

AGUGAGUGAGGAUAUCACUGAACAACAAAACAAAUAACGAGUGAGAAGGCACAUGAGGAUCACCCAUGUACACA [May 67]
apparent KD of MS2 coat protein [1]: 0.0234 µM
apparent KD of MS2 coat protein [2]: 0.0192 µM

AGUUGGCGAGGAUAUACAUGAGGAUCACCCAUGUGAAAAAAAAAAGUGAGAAAGAAAAGUAGAAGGCGCUGACA [Mat - Exclusion 3 - Lego mod - D89]
apparent KD of MS2 coat protein [1]: 0.0351 µM
apparent KD of MS2 coat protein [2]: 0.152 µM

AGUUGGCGAGGAUAUACAUGAGGAUCACCCAUGUGAGAGAAAAAAAGGAAAAAAAAAAGUAGAAGGCGCUGACA [Mat - Exclusion 3 - Lego mod - D44]
apparent KD of MS2 coat protein [1]: 0.043 µM
apparent KD of MS2 coat protein [2]: 0.0691 µM

AGUUGGCGAGGAUAUACAUGAGGAUCACCCAUGUGAGAGAAAAAAAGGAGAAAAAAAAGUAGAAGGCGCUGACA [Ruth Fulton Benedict]
apparent KD of MS2 coat protein [1]: 0.0423 µM
apparent KD of MS2 coat protein [2]: 0.123 µM

AGUUGGCGAGGAUAUACAUGAGGAUCACCCAUGUGAGAGAAAAAAGUGAGAAAGAAAAGUAGAAGGCGCUGACA [Norbert Elias]
apparent KD of MS2 coat protein [1]: 0.0492 µM
apparent KD of MS2 coat protein [2]: 0.202 µM

AGUUGGCGAGGAUAUACAUGAGGAUCACCCAUGUGAGAGAAAAAAGUGAGAAAGAAAAGUAGAAGGCGCUGACA [salish99-ex3-05]
apparent KD of MS2 coat protein [1]: 0.0492 µM
apparent KD of MS2 coat protein [2]: 0.202 µM

AGUUGGCGAGGAUAUACAUGAGGAUCACCCAUGUGAGAGUAAGAAGUGAGAAAGAGAAGUAGAAGGCGCUAACA [Ruby 54]
apparent KD of MS2 coat protein [1]: 0.0484 µM
apparent KD of MS2 coat protein [2]: 0.284 µM

AGUUUGUCAGGAUAUGCGUGAAGAAUAAAACAAAUAACAACGCAGAAGGGACAUGAGGAUCACCCAUGUAAACA [May 54]
apparent KD of MS2 coat protein [1]: 0.0513 µM
apparent KD of MS2 coat protein [2]: 0.0581 µM

AUAAAACAUGAGGAUCACCCAUGUGAGGAUAUGCGAAACAAAGAAACAAACAAACAAAGCAGAAGGCACAAUAA [Amethyst 7]
apparent KD of MS2 coat protein [1]: 0.0242 µM
apparent KD of MS2 coat protein [2]: 0.0392 µM

AUAAAGUCAGGAUAUGUAAAAAUAACGAAAGUUAUAAAUAAACAGAAGGGACAUGAGGAUCACCCAUGUAAAAU [Meechl MS2 Ex4]
apparent KD of MS2 coat protein [1]: 0.047 µM
apparent KD of MS2 coat protein [2]: 0.0412 µM

AUAGUACAUGAGGAUCACCCAUGUCAGGAUAUCGGAUAUGACAUGAAAAAAAUGUUAAUGAGAAGGGACUAUAA [EX1 Malc#18 Mod 1 - Jieux - Exclusion 1]
apparent KD of MS2 coat protein [1]: 0.0529 µM
apparent KD of MS2 coat protein [2]: 0.0636 µM

AUAGUACAUGAGGAUCACCCAUGUCAGGAUAUUCGAAAUGAAAAAAAAAAAAAAUGAAGGAGAAGGGACUAUAA [EX1 Malc#11]
apparent KD of MS2 coat protein [1]: 0.0747 µM
apparent KD of MS2 coat protein [2]: 0.072 µM

AUGAGAGCAGGAUAUGCAGGUGAGCCGGAAGAAAGAAGAAGACAUGAGGAUCACCCAUGUAGAAGGGCUAGCCC [Madiesxe]
apparent KD of MS2 coat protein [1]: 0.0419 µM
apparent KD of MS2 coat protein [2]: 0.0387 µM

CACGUACAUGAGGAUCACCCAUGUUAGGAUAUGCCGGGUAAGAGAAAACUAAAAAUCAGCAGAAGGGACGAAAC [Bilbo Confounded 16 - Jieux - Exclusion 1]
apparent KD of MS2 coat protein [1]: 0.0367 µM
apparent KD of MS2 coat protein [2]: 0.0323 µM

CAGUACUGAGGAUAUACAUGAGGAUCACCCAUGUAUCCAAGCUAGGAAACUAGCAAAAGUAGAAGGCAGUACUG [Ex3: 820]
apparent KD of MS2 coat protein [1]: 0.0132 µM
apparent KD of MS2 coat protein [2]: 0.0655 µM

— the supplement of paper PMC9170038
